What all share (test): EMSA
In general terms: In EMSA bound probe runs differently from free probe, usually more slowly.

Series [1] deals with T1, PPARγ2;RXRα (mouse;human, UniProt P37238;P19793 1-505;1-462, |).
The target in series [2] is T1, PPARγ2;RXRα. The source holds these as a separate data set.
The target of series [3] is T1, PPARγ2;RXRα. The source holds these as a separate data set.

From PMC6042069 come the findings set out here.

Numbering of substitutions follows the chain as printed. Where two headings read alike, the source gives them in different places.

B1: LepRE1 LOF (dsDNA)
DNA 1: AAGATTTGAAATTTCCGCAGAATTGGCTGCAGC
DNA 2: GCTGCAGCCAATTCTGCGGAAATTTCAAATCTT
Regarding B1, the binding result with PPARγ2;RXRα [1] is given as “no binding”.

B2: LepRE1 EXT (dsDNA)
DNA 1: B1 DNA 1 with A11C, A21G
DNA 2: B1 DNA 2 with T13C, T23G
As for B2, the binding result with PPARγ2;RXRα [2] is listed as “binds”.

B3: LepRE1 DR1 (GOF) (dsDNA)
DNA 1: AAGATTTGAACTTTGAACTGAATTGGCTGCAGC
DNA 2: GCTGCAGCCAATTCAGTTCAAAGTTCAAATCTT
In the case of B3, the binding result with PPARγ2;RXRα [3] is reported as “binds”.
